B4: soluble TorC (heme-containing, holo-TorC) (natural protein, E. coli, UniProt P33226 21-390, looked up)
chain: VAIGIVIGIALIVLPHVGIKVTSTTEFCVSCHSMQPVYEEYKQSVHFQNASGVRAECHDCHIPPDIPGMVKRKLEASNDIYQTFIAHSIDTPEKFEAKRAELAEREWARMKENNSATCRSCHNYDAMDHAKQHPEAARQMKVAAKDNQSCIDCHKGIAHQLPDMSSGFRKQFDELRASANDSGDTLYSIDIKPIYAAKGDKEASGSLLPASEVKVLKRDGDWLQIEITGWTESAGRQRVLTQFPGKRIFVASIRGDVQQQVKTLEKTTVADTNTEWSKLQATAWMKKGDMVNDIKPIWAYADSLYNGTCNQCHGAPEIAHFDANGWIGTLNGMIGFTSLDKREERTLLKYLQMNASDTAGKAHGDKKEEK
modifications: heme c at the five CXXCH motifs (iron saturation about 75% of five hemes)
notes: TorC, pentahemic c-type cytochrome of E. coli, lacking the N-terminal 20 amino acid membrane anchor (first 60 nucleotides of the gene deleted); also called soluble periplasmic TorC; source: E. coli HM125 with pTorC-SS and pEC86 (ccmABCDEFGH), hemin added, purified (Ni-NTA, gel filtration)

Legend:
TorA (Escherichia coli) = TorA (Escherichia coli) (UniProt P33225); conditions: cited from earlier work
soluble TorC = target: T1, soluble TorC (Escherichia coli, UniProt P33226); test: UV-visible spectroscopy, reduction of TorC; format: biochemical; conditions: electron donor, anaerobic
T1 construct: expressed in E. coli HM125 with ccmABCDEFGH; 43 kDa monomer

[1] = target: B4; test: SPR; Biacore T200, CM5 chip, target immobilised via amine coupling, 25 °C, 30 µL/min, 20 mM phosphate, 150 mM NaCl, 0.005% Tween 20, pH 7.4; global fit, 1:1 binding; mean of three measurements; conditions: both partners purified
[2] = target: T2, apo-TorC (soluble TorC without hemes) (E. coli, UniProt P33226 21-390); test: as above; conditions: both partners purified
T2 construct: TorC of E. coli lacking the N-terminal 20 amino acid membrane anchor, made without heme insertion; also called soluble apo-TorC; source: E. coli, 'soluble torC' gene expressed without the ccm gene cluster (pEC86) and without hemin, purified
T2 sequence (looked up): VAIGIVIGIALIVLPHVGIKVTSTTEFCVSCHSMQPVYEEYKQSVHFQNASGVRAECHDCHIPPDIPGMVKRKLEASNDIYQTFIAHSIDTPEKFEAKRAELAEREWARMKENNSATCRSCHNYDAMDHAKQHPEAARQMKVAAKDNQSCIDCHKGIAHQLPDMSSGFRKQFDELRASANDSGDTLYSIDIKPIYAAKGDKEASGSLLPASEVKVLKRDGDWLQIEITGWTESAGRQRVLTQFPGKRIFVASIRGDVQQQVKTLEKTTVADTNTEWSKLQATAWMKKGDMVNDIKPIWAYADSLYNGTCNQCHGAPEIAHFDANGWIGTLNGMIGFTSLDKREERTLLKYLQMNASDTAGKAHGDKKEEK

GC-MS of derivatized TMA = substrate: C[N+](C)(C)[O-]; test: GC-MS of derivatized TMA; format: biochemical, Escherichia coli; conditions: 5 µM menadiol as electron donor via soluble TorC, 100 mM Sörensen buffer pH 6.5, 37 °C, anaerobic
Text: GC-MS of derivatized TMA on TorA with soluble TorC (physiological electron transfer assay)

purified protein = substrate: C[N+](C)(C)[O-]; test: purified protein; format: biochemical, Escherichia coli; conditions: 400 µM benzyl viologen (dithionite-reduced), 100 mM Sörensen buffer pH 6.5, 37 °C, anaerobic, 3 nM TorA
[3] = target: TorAD2 (TorA purified in a 1:2 stoichiometry with TorD) (E. coli) (UniProt P33225); test: MST; Monolith NT.115, TorAD2 labelled with NT-647-NHS at constant concentration (5 nM), soluble TorC titrated, 25 °C, premium capillaries
TorA (TMAO reductase) [4] = target: T3, TorA (TMAO reductase) (E. coli, UniProt P33225 40-848); test: cell-based or functional assay
T3 sequence: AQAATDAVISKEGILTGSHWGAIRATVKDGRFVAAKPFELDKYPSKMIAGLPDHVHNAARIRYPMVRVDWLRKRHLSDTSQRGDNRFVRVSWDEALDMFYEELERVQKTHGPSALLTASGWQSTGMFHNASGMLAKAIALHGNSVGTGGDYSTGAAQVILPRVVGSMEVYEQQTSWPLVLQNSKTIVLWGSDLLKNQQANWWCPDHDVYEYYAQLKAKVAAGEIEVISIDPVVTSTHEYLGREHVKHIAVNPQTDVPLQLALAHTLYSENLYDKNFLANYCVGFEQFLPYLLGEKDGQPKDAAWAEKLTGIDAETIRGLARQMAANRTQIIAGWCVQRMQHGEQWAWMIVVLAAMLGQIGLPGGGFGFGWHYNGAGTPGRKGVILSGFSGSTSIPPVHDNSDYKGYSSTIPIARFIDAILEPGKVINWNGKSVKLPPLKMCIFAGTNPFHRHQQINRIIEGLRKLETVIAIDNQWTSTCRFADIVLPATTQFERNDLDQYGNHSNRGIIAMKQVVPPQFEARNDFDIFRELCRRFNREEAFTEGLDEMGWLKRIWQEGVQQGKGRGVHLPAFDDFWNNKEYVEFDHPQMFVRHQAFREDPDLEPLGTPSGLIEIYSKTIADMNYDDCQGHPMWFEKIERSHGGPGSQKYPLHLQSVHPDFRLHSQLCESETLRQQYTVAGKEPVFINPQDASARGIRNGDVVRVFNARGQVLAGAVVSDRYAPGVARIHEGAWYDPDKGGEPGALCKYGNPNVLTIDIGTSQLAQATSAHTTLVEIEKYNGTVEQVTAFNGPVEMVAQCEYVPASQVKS

apo-TorA = target: T4, apo-TorA (E. coli, UniProt P33225 40-848); test: SPR; Biacore T200, CM5 chip, target immobilised via amine coupling, 25 °C, 30 µL/min, 20 mM phosphate, 150 mM NaCl, 0.005% Tween 20, pH 7.4; global fit, 1:1 binding; mean of three measurements; conditions: both partners purified
T4 construct: TorA, TMAO reductase of E. coli, apo form; Apo form (without cofactor); source: purified following published procedures [31]
T4 sequence: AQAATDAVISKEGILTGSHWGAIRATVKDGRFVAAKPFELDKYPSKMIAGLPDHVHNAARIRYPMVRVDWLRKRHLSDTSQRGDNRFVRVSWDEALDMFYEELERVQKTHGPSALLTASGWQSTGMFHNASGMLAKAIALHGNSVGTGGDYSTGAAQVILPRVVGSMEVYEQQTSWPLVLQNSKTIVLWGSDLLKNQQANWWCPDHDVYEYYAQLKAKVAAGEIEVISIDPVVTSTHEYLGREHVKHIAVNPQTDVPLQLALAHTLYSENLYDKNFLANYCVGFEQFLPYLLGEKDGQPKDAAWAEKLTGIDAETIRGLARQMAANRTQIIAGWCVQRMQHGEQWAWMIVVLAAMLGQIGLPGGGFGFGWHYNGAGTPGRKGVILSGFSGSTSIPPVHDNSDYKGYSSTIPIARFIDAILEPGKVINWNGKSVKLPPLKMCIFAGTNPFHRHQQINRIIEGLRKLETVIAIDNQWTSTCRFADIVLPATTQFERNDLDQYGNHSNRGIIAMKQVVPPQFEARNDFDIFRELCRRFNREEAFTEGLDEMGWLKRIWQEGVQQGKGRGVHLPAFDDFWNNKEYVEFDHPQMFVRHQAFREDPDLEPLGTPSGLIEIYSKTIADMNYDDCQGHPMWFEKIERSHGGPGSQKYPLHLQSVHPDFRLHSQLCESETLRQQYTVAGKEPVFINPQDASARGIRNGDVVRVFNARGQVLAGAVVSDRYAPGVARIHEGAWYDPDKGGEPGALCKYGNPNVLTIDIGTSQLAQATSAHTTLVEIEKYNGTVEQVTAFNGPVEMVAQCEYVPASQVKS

[5] = target: TorAD2 (TorA purified in a 1:2 stoichiometry with TorD) (E. coli) (UniProt P33225); test: as above
TorA (TMAO reductase) [6] = target: T3, TorA (TMAO reductase); test: SEC; TorA co-purified with TorD (plasmid pTorAD); TorAD2 complex of 136.5 kDa on analytical gel filtration; conditions: partners not purified

TorC TorCN (from UniProt P33226)
Kd (TorA (Escherichia coli)): 45 nM

Cc1cc(O)c2ccccc2c1O [menadiol]
UV-visible spectroscopy, reduction of TorC (soluble TorC): menadiol can reduce soluble TorC, which can be re-oxidized by TorA

B1: TorSN (periplasmic detection domain of TorS) (domain or fragment, E. coli, UniProt P39453 30-332, looked up)
chain: NLRFISQVEKDNTQALIPTMNMARQLSEASAWELFAAQNLTSADNEKMWQAQGRMLTAQSLKINALLQALREQGFDTTAIEQQEQEISRSLRQQGELVGQRLQLRQQQQQLSQQIVAAADEIARLAQGQANNATTSAGATQAGIYDLIEQDQRQAAESALDRLIDIDLEYVNQMNELRLSALRVQQMVMNLGLEQIQKNAPTLEKQLNNAVKILQRRQIRIEDPGVRAQVATTLTTVSQYSDLLALYQQDSEISNHLQTLAQNNIAQFAQFSSEVSQLVDTIELRNQHGLAHLEKASARGQYS
notes: TorS, sensor histidine kinase of E. coli, periplasmic detection domain; also called periplasmic TorS; source: from plasmid pET-Sp (pET21), purified following published procedures [7]
Kd [1]: 1030 nM | Kd [2]: 943 nM

B2: TorA with soluble TorC (physiological electron transfer assay) (Escherichia coli K-12) (protein)
chain: AQAATDAVISKEGILTGSHWGAIRATVKDGRFVAAKPFELDKYPSKMIAGLPDHVHNAARIRYPMVRVDWLRKRHLSDTSQRGDNRFVRVSWDEALDMFYEELERVQKTHGPSALLTASGWQSTGMFHNASGMLAKAIALHGNSVGTGGDYSTGAAQVILPRVVGSMEVYEQQTSWPLVLQNSKTIVLWGSDLLKNQQANWWCPDHDVYEYYAQLKAKVAAGEIEVISIDPVVTSTHEYLGREHVKHIAVNPQTDVPLQLALAHTLYSENLYDKNFLANYCVGFEQFLPYLLGEKDGQPKDAAWAEKLTGIDAETIRGLARQMAANRTQIIAGWCVQRMQHGEQWAWMIVVLAAMLGQIGLPGGGFGFGWHYNGAGTPGRKGVILSGFSGSTSIPPVHDNSDYKGYSSTIPIARFIDAILEPGKVINWNGKSVKLPPLKMCIFAGTNPFHRHQQINRIIEGLRKLETVIAIDNQWTSTCRFADIVLPATTQFERNDLDQYGNHSNRGIIAMKQVVPPQFEARNDFDIFRELCRRFNREEAFTEGLDEMGWLKRIWQEGVQQGKGRGVHLPAFDDFWNNKEYVEFDHPQMFVRHQAFREDPDLEPLGTPSGLIEIYSKTIADMNYDDCQGHPMWFEKIERSHGGPGSQKYPLHLQSVHPDFRLHSQLCESETLRQQYTVAGKEPVFINPQDASARGIRNGDVVRVFNARGQVLAGAVVSDRYAPGVARIHEGAWYDPDKGGEPGALCKYGNPNVLTIDIGTSQLAQATSAHTTLVEIEKYNGTVEQVTAFNGPVEMVAQCEYVPASQVKS
notes: recombinant TorA plus soluble TorC (first 20 residues, membrane anchor, deleted); with Cytochrome c-type protein TorC
Km (GC-MS of derivatized TMA): 9.8 ± 2.53 µM | kcat (GC-MS of derivatized TMA): 0.145 ± 0.05 s⁻¹

B3: TorA (TMAO reductase) (Escherichia coli K-12) (protein)
chain: AQAATDAVISKEGILTGSHWGAIRATVKDGRFVAAKPFELDKYPSKMIAGLPDHVHNAARIRYPMVRVDWLRKRHLSDTSQRGDNRFVRVSWDEALDMFYEELERVQKTHGPSALLTASGWQSTGMFHNASGMLAKAIALHGNSVGTGGDYSTGAAQVILPRVVGSMEVYEQQTSWPLVLQNSKTIVLWGSDLLKNQQANWWCPDHDVYEYYAQLKAKVAAGEIEVISIDPVVTSTHEYLGREHVKHIAVNPQTDVPLQLALAHTLYSENLYDKNFLANYCVGFEQFLPYLLGEKDGQPKDAAWAEKLTGIDAETIRGLARQMAANRTQIIAGWCVQRMQHGEQWAWMIVVLAAMLGQIGLPGGGFGFGWHYNGAGTPGRKGVILSGFSGSTSIPPVHDNSDYKGYSSTIPIARFIDAILEPGKVINWNGKSVKLPPLKMCIFAGTNPFHRHQQINRIIEGLRKLETVIAIDNQWTSTCRFADIVLPATTQFERNDLDQYGNHSNRGIIAMKQVVPPQFEARNDFDIFRELCRRFNREEAFTEGLDEMGWLKRIWQEGVQQGKGRGVHLPAFDDFWNNKEYVEFDHPQMFVRHQAFREDPDLEPLGTPSGLIEIYSKTIADMNYDDCQGHPMWFEKIERSHGGPGSQKYPLHLQSVHPDFRLHSQLCESETLRQQYTVAGKEPVFINPQDASARGIRNGDVVRVFNARGQVLAGAVVSDRYAPGVARIHEGAWYDPDKGGEPGALCKYGNPNVLTIDIGTSQLAQATSAHTTLVEIEKYNGTVEQVTAFNGPVEMVAQCEYVPASQVKS
notes: recombinant from plasmid pTorAD (torAD in pJF119EH), expressed in E. coli; bis-MGD enzyme; monomer; also purified as TorAD2 complex; first 48 and last 5-10 residues not seen in crystal
Km (purified protein): 22.06 ± 0.75 µM | kcat (purified protein): 228 ± 46.3 s⁻¹

B4
Kd [3]: 1070 nM | kcat of TMAO reduction by TorA with menadiol and soluble TorC as electron donors (TMA quantified by GC-MS) (TorA (TMAO reductase) [4]): 0.145 s⁻¹ | Kd (apo-TorA): 266 nM | Kd [5]: 309 nM

B5: TorD (natural protein, E. coli, UniProt P36662 1-199, looked up)
chain: MTTLTAQQIACVYAWLAQLFSRELDDEQLTQIASAQMAEWFSLLKSEPPLTAAVNELENRIATLTVRDDARLELAADFCGLFLMTDKQAALPYASAYKQDEQEIKRLLVEAGMETSGNFNEPADHLAIYLELLSHLHFSLGEGTVPARRIDSLRQKTLTALWQWLPEFVARCRQYDSFGFYAALSQLLLVLVECDHQNR
notes: source: co-expressed from plasmid pTorAD and co-purified with TorA
stoichiometry N (TorA (TMAO reductase) [6]): 2 TorD per TorA

— publication PMC11727998, “Purification and Electron Transfer from Soluble c-Type Cytochrome TorC to TorA for Trimethylamine N-Oxide Reduction” (International Journal of Molecular Sciences, 2024)
